Laboratory results taken from patent US20150093336A1 (VIB VZW, published 2015).

T1: Recombinant human MMR (R&D systems) (human, UniProt P22897 19-1383)
T1 construct: Antigen of the PE-ELISA and the SPR; also called hMMR; recombinant hMMR
T1 sequence: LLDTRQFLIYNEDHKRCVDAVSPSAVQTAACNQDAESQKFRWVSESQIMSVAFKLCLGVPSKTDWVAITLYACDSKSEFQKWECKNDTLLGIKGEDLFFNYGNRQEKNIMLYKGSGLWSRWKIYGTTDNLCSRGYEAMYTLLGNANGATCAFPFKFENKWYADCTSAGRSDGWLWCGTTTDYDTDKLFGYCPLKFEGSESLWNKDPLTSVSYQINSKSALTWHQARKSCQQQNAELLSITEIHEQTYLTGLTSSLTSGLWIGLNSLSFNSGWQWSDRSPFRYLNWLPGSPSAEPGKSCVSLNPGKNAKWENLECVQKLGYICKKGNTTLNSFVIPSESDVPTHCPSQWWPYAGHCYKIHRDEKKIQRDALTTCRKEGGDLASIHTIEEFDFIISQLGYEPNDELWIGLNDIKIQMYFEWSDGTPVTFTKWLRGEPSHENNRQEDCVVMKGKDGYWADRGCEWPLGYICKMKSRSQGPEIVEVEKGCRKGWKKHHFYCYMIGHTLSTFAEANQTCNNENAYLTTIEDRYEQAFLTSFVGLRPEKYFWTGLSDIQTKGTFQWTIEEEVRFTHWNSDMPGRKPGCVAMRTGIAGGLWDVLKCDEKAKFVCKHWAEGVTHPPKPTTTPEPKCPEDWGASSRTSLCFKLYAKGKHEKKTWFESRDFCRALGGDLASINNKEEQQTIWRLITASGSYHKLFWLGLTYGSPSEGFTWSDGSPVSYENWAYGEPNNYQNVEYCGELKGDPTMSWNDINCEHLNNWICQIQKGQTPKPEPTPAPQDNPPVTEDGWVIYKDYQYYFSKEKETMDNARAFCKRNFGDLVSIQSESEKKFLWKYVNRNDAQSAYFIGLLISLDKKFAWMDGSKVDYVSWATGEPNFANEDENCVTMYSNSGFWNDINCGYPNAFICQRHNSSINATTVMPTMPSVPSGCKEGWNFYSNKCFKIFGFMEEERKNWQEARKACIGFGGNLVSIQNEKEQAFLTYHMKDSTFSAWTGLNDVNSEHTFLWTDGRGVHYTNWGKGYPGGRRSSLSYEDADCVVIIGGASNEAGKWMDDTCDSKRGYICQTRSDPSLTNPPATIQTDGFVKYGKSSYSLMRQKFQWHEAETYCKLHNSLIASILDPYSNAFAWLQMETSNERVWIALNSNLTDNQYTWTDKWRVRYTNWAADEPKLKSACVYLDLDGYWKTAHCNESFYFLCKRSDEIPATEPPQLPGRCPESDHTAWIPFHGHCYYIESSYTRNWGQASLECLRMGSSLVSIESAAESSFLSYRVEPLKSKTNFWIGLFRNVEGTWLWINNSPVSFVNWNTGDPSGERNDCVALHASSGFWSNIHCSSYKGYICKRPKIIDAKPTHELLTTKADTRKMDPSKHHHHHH

T2: Recombinant mouse MMR (R&D systems) (mouse, UniProt Q61830 20-1388)
T2 construct: Antigen of the PE-ELISA and the SPR; also called mMMR; recombinant mMMR
T2 sequence: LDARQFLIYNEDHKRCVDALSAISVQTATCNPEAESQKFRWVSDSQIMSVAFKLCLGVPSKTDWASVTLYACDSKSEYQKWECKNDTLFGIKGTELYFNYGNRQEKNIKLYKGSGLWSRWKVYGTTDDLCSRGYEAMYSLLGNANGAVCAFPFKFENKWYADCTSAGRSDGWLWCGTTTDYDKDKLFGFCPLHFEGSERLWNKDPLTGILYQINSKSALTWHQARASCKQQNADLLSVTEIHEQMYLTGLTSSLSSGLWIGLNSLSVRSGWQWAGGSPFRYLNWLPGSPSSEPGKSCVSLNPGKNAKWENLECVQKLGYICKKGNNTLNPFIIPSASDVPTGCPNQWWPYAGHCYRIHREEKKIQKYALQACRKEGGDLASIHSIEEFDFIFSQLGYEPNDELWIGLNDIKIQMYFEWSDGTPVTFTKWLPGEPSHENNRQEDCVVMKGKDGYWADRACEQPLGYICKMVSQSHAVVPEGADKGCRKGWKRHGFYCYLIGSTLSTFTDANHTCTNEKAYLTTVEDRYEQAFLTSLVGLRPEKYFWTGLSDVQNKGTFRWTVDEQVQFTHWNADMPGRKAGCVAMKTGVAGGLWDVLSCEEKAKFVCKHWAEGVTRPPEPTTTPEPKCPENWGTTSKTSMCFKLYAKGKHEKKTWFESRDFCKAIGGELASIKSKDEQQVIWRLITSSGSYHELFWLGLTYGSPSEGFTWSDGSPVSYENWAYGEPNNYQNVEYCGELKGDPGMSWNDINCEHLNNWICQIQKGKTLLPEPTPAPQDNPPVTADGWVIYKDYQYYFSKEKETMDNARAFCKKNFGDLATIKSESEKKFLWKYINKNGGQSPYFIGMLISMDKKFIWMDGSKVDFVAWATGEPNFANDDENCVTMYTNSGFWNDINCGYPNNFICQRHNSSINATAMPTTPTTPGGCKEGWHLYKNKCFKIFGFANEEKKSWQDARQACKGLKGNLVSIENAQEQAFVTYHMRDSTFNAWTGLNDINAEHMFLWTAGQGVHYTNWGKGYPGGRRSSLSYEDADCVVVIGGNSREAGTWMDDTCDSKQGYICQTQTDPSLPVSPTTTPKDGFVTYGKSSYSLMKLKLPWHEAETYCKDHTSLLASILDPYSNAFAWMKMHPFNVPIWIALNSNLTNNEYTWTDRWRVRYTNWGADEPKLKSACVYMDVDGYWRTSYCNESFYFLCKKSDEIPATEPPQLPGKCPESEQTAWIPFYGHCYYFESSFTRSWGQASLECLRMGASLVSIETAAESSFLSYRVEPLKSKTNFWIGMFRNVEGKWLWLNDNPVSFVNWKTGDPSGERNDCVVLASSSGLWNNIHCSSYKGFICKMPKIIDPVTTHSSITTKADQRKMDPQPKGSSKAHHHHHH


Experiments:
[1] = target: T1, Recombinant human MMR (R&D systems); experiment: SPR, BIAcore T100; human MMR on CM5 chip, sdAb as analyte
Method: (§1) Affinity analysis was performed using a BIAcore™ T100 (GE Healthcare) with HEPES-buffered saline running buffer (10 mM HEPES with 0.15 M NaCl, 3.4 mM EDTA and 0.005% surfactant P20 at pH 7.4). MRR was immobilized on a CM5 chip in acetate buffer 50 mM (pH 5.0), resulting in 2100 RU MMR coated on the chip. A second channel on the same chip was activated/deactivated in a similar way and served as a negative control. The MMR sdAbs were used as analytes in eleven different concentrations, ranging from 1 to 2000 nM, at a flow rate of […]. Glycine-HCl 50 mM (pH 2.0) was used for elution. The kinetic and equilibrium parameters (kd, ka and KD) values were calculated from the combined sensogram of all concentrations using BIAcore™ T100 evaluation software 2.02 (GE Healthcare).
(§2) The binding characteristics and affinity of selected Nbs towards the recombinant hMMR and recombinant mMMR antigen was examined in further detail using surface plasmon resonance. A combined sensogram was recorded for each Nb (example for NbhmMMRm3.49 in FIG. 5) and the kinetic and equilibrium parameters (kd, ka and KD) values were calculated (Table 4 and Table 5). Most but not all results on binding to mouse or human rMMR obtained via this SPR analysis are in agreement with the results obtained by PE-ELISA.

[2] = target: T2, Recombinant mouse MMR (R&D systems); experiment: SPR, BIAcore T100; mouse MMR on CM5 chip, sdAb as analyte
Method: as §1, §2

Binder | Kd [1] [nM] | koff [1] [s⁻¹] | kon [1] [M⁻¹ s⁻¹] | Kd [2] [nM] | koff [2] [s⁻¹] | kon [2] [M⁻¹ s⁻¹] | binding result [2]
NbhMMRm16.95 (VHH, Produced from pMECS with C-terminal HA and 6xHis tag) VHH: QVQLQESGGGLVQPGGSLGLSCAASGRIASISAMGWYRQAPGKQRELVAAITGSGRTNYADSVKGRFTISRDNAKNTVYLQMNSLKPEDTAVYYCNLLMVDYGLGLGTDYWGQGTQVTVSS | 21 | 0.0014 | 66000 |  |  |  | no binding (tested: analyte 1 to 2000 nM)
NbhmMMRm19.52 (VHH, Produced from pMECS with C-terminal HA and 6xHis tag) VHH: QVQLQESGGGLVQAGGSLRLSCLASGDTFSNYVMAWFRQAPGKEREIVAAIRLSGARYVPDSVKGRFTISRDNAKNAMYLQMTSLKPEDTARYYCAAGHTWGQYAYWGQGTQVTVSS | 1700 | 0.01 | 6000 | 8500 | 0.032 | 3700 | 
NbhMMRm2.15 (VHH, Produced from pMECS with C-terminal HA and 6xHis tag) VHH: QVQLQESGGGLVQPGESLRLSCKLSGFTLDYYDIGWFRQAPGKEREGVSCISSIGGSANYADSVKGRFTISRDNVKNTVYLQMNSLKPEDTAIYYCAAEAQTPYNDGDCTRASYDYWGQGIQVTVSS | 8.6 | 0.0013 | 150000 |  |  |  | no binding (tested: analyte 1 to 2000 nM)
NbhmMMRm20.52 (VHH, Produced from pMECS with C-terminal HA and 6xHis tag) VHH: QVQLQESGGGLVQAGGSLRLSCAASGRIFSAYAMGWFRQAPGKEREFVAAISRSGDSTDYADSVKGRFTISRDSAKNMVYLQMNSLKPEDTALYHCAARTVSAPPSAAWGYGYWGQGTQVTVSS | 260 | 0.13 | 510000 | 1.3 | 0.002 | 1.6e+06 | 
NbhmMMRm14.4 (VHH, Produced from pMECS with C-terminal HA and 6xHis tag) VHH: QVQLQESGGGLVQAGDSLRLSCAASGRTFSINYMGWYRQAPGKQRELVAAITSGSGSTNYADSVKGRFTISRDNAKNTMYLQMNSLKPEDTAVYYCNADMDSSLSGGYVDVWGQGTQVTVSS | 10 | 0.0014 | 140000 | 68 | 0.0023 | 33000 | 
NbhmMMRm14.93 (VHH, Produced from pMECS with C-terminal HA and 6xHis tag) VHH: QVQLQESGGGLVQAGDSLRLSCAASGRTFSINYMGWYRQAPGKQRELVAAITSGSGSTNYADSVKGRFTISRDNAKKTMYLQMNSLKPEDTAVYYCNADMDSSLSGGYVDVWGQGTQVTVSS | 13 | 0.0012 | 95000 | 74 | 0.0021 | 29000 | 

The remaining binders from weak to strong by Kd [1], led by results:

Kd [1] [nM] | koff [1] [s⁻¹] | kon [1] [M⁻¹ s⁻¹] | Kd [2] [nM] | koff [2] [s⁻¹] | kon [2] [M⁻¹ s⁻¹] | Binder | binding result [2]
420 | 0.0066 | 16000 | 39 | 0.0042 | 110000 | NbhmMMRm10.79 (VHH, Produced from pMECS with C-terminal HA and 6xHis tag) VHH: QVQLQESGGGLVQPGGSLKLSCAASGSIFSIKTMGWYRQAPGKQRELVAAVSSGGSTNYADSVKGRFTISRDNAKNAVYLQMNSLKPEDTAVYYCNADGVVAWDQPYDNYWGQGTQVTVSS | 
55 | 0.022 | 400000 | 120 | 0.019 | 150000 | NbhMMRm11.5 (VHH, Produced from pMECS with C-terminal HA and 6xHis tag) VHH: QVQLQESGGGLVQPGGSLMLSCAASGNIFTINRMGWYRQAPGKQRELVAAITSGGNTNYADSVKGRFTISRDNAKNTVYLQMNSLKPEDTAVYYCNAAIVTMTSPYSDYWGQGTQVTVSS | 
8.2 | 0.0012 | 150000 |  |  |  | NbhMMRm12.6 (VHH, Produced from pMECS with C-terminal HA and 6xHis tag) VHH: QVQLQESGGGLVQPGGSLRLSCVVSGSFLSINHMGWYRQVSGEQRELVAAITSGGSTNYADSVKGRFTISRDSAKNTVYLQMNSLKPEDTAVYYCNADALTMLPPFDFWGQGTQVTVSS | no binding (tested: analyte 1 to 2000 nM)
7.7 | 0.0015 | 200000 |  |  |  | NbhMMRm1.33 (VHH, Produced from pMECS in E. coli WK6 with C-terminal HA and 6xHis tag; also called NbMMRm1.33) VHH: QVQLQESGGGLVQPGGSLRLSCAASGFTLDNYTVAWFRQAPGKEREGVSCISSSGGSTNYADSVKGRFTISRDNSKKSVYLQMNSLKPEDTAIYTCAAERAPPYYSGYYFFDSTCVAASYDYWGQGTQVTVSS | no binding (tested: analyte 1 to 2000 nM)
